Laboratory results from patent publication US20200109190A1 (AstraZeneca / MedImmune, published 2020).
Several values for one entry are separate records, joined by “and”; a condition that tells them apart may be missing. Equal values may be shown once. Read-outs that look alike come from different tables or passages of the source.

T1: HlgAB (Staphylococcus aureus, UniProt P0A074 30-309)
T1 sequence 1: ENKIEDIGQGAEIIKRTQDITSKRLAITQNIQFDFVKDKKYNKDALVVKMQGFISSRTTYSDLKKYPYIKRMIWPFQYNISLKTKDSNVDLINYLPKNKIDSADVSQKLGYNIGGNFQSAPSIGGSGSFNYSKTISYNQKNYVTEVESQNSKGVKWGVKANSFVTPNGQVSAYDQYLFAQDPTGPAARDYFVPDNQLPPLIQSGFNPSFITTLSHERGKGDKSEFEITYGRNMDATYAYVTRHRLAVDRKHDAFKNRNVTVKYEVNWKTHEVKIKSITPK
T1 sequence 2: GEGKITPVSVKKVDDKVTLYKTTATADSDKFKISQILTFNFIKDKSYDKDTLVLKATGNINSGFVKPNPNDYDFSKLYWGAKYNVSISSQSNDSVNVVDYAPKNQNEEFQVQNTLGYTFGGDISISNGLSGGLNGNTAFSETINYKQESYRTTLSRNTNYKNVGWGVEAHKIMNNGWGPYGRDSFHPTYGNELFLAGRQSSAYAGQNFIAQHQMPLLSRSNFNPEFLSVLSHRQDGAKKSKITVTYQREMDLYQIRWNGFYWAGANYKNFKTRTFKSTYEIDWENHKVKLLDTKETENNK

T2: S. aureus HlgB (Staphylococcus aureus, UniProt P0A075 27-325)
T2 sequence: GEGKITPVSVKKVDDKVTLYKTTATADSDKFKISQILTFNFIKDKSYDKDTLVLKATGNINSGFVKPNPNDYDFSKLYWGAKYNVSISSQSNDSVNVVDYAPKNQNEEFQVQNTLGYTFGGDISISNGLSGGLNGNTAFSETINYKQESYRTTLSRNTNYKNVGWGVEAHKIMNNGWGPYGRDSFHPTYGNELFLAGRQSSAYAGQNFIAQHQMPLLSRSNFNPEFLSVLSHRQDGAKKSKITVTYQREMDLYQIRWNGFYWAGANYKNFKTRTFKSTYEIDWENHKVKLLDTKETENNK

T3: S. aureus LukD (Staphylococcus aureus, UniProt Q2FXB1 27-327)
T3 sequence: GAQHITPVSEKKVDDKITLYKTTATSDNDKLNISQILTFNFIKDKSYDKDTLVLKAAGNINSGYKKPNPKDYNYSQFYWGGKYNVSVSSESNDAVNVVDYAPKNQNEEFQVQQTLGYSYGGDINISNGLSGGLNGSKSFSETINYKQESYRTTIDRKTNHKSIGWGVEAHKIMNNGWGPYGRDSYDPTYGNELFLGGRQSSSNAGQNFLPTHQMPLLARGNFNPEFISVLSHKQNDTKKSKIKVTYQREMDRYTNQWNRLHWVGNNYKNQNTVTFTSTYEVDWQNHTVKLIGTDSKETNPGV


Columns and labels:
[1] = target: T4, S. aureus LukF (Staphylococcus aureus); assay: method not stated at Table 8; BLI (Octet) is described in Example 4
[2] = target: T1, HlgAB; assay: cell-based or functional assay
[3] = target: T5, LukSF (Staphylococcus aureus); assay: cell-based or functional assay
[4] = target: T1, HlgAB; assay: cell-based or functional assay; remark: listed apart in the source
[5] = target: T5, LukSF; assay: cell-based or functional assay; remark: listed apart in the source
[6] = target: T2, S. aureus HlgB
[7] = target: T4, S. aureus LukF
[8] = target: T3, S. aureus LukD
[9] = target: T1, HlgAB; assay: cell-based or functional assay; remark: listed apart in the source
[10] = target: T5, LukSF; assay: cell-based or functional assay; remark: listed apart in the source

| Binder | Kd [1] | IC50 (HIgAB) HL-60 [2] | IC50 (LukSF) HL-60 [3] | IC50 (HIgAB) HL-60; Dark sample [4] | IC50 (HIgAB) HL-60; Light sample [4] | IC50 (LukSF) HL-60; Dark sample [5] | IC50 (LukSF) HL-60; Light sample [5] | Kd [6] | koff [6] | kon [6] | Kd [7] | koff [7] | kon [7] | Kd [8] | koff [8] | kon [8] | IC50 Fold loss vs. WT (HIgAB) [9] | IC50 for HIgAB [9] | IC50 Fold loss vs. WT (LukSF) [10] | IC50 for LukSF [10] |
| --- | --- | --- | --- | --- | --- | --- | --- | --- | --- | --- | --- | --- | --- | --- | --- | --- | --- | --- | --- | --- |
| SAN481-YTE (antibody, also called QD1) heavy: QLQLVESGGGAVQPGRSLKLSCAASGFNFSTYAMHWVRQAPGRGLEWVAVTSFDGSNEYYIDSVKGRFTISRDNTKNTLYLQMTGLRVEDTALYFCARDEYTGGWYSVGYWGQGTLVTVSSASTKGPSVFPLAPSSKSTSGGTAALGCLVKDYFPEPVTVSWNSGALTSGVHTFPAVLQSSGLYSLSSVVTVPSSSLGTQTYICNVNHKPSNTKVDKRVEPKSCDKTHTCPPCPAPELLGGPSVFLFPPKPKDTLYITREPEVTCVVVDVSHEDPEVKFNWYVDGVEVHNAKTKPREEQYNSTYRVVSVLTVLHQDWLNGKEYKCKVSNKALPAPIEKTISKAKGQPREPQVYTLPPSREEMTKNQVSLTCLVKGFYPSDIAVEWESNGQPENNYKTTPPVLDSDGSFFLYSKLTVDKSRWQQGNVFSCSVMHEALHNHYTQKSLSLSPGK light: not shown | 0.0148 nM | 0.54 mg/L | 0.15 mg/L | 0.704 mg/L | 0.821 mg/L | 0.209 mg/L | 0.233 mg/L | < 0.001 nM | < 1e-07 s⁻¹ | 240000 M⁻¹ s⁻¹ and 265000 M⁻¹ s⁻¹ | 0.232 nM and 0.226 nM | 6.55e-05 s⁻¹ and 6.47e-05 s⁻¹ | 283000 M⁻¹ s⁻¹ and 287000 M⁻¹ s⁻¹ | < 0.001 nM | < 1e-07 s⁻¹ | 277000 M⁻¹ s⁻¹ and 294000 M⁻¹ s⁻¹ | 0.95 fold | 0.54 mg/L | 0.938 fold | 0.15 mg/L |
| SAN481-SY-YTE (antibody, V domains shown, also called QD2; SAN481VL26S32Y-YTE) VH: QLQLVESGGGAVQPGRSLKLSCAASGFNFSTYAMHWVRQAPGRGLEWVAVTSFDGSNEYYIDSVKGRFTISRDNTKNTLYLQMTGLRVEDTALYFCARDEYTGGWYSVGYWGQGTLVTVSS VL: QSVLTQPPSASGTPGQRVTISCSGSSYNIGSNYVYWYQQFPGTAPKLLISRSIQRPSGVPDRFSGSKSVTSASLAISGLRSEDEADYYCAAWDDSLRAWVFGGGTKLTVLG | 0.101 nM | 0.55 mg/L | 0.18 mg/L | 0.721 mg/L | 0.736 mg/L | 0.221 mg/L | 0.241 mg/L |  |  |  |  |  |  |  |  |  | 0.97 fold | 0.551 mg/L | 1.14 fold | 0.183 mg/L |
